Experimental data published in article PMC2909360 (Molecular microbiology, 2010).

T1: purified papain (UniProt P00784 134-345)
T1 sequence (looked up): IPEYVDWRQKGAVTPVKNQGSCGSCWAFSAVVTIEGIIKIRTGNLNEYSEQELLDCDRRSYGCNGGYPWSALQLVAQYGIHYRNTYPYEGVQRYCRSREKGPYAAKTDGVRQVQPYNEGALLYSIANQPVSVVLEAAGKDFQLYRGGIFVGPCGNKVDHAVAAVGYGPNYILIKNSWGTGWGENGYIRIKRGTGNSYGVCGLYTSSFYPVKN


Experiments:
Experiment in all cases: cell-based or functional assay
[1] = biological target: recombinant human cathepsin S (human, UniProt P25774 17-331)
[2] = biological target: purified bovine cathepsin C (bovine)
purified papain = biological target: T1, purified papain
[3] = biological target: recombinant human cathepsin L (human, UniProt P07711 18-333)
Chain of recombinant human cathepsin L (P07711 18-333): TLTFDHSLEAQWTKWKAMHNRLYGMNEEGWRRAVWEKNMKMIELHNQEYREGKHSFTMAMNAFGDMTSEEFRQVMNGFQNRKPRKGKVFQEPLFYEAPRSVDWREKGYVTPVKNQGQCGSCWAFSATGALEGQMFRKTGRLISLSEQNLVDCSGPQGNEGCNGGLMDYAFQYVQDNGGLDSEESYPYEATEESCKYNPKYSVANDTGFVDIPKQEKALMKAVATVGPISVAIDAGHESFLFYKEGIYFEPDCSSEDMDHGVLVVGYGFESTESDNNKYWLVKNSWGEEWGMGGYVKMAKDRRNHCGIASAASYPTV

Chain of recombinant human cathepsin S (P25774 17-331): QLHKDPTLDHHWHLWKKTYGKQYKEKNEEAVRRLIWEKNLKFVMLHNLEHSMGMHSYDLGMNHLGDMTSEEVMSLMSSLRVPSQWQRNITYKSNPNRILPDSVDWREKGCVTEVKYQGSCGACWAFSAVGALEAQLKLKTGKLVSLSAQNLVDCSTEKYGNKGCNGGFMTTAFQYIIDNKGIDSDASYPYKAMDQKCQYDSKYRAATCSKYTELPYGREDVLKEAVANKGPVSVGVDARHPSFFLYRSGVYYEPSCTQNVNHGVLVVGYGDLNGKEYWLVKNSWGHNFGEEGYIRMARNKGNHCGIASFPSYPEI
Chain of purified bovine cathepsin C (bovine) (Q3ZCJ8 25-463): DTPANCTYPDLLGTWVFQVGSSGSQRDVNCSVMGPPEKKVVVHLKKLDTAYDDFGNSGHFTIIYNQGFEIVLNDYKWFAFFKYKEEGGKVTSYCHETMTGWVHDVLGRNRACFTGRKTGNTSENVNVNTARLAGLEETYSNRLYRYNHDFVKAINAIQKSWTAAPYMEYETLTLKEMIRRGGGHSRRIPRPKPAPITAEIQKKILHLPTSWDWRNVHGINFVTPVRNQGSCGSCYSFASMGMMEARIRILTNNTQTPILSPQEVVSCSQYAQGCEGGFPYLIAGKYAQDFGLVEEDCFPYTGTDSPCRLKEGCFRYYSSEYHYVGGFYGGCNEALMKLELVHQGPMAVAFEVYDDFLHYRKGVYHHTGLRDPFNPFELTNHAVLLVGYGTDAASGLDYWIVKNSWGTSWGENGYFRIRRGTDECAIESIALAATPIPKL

Binder	IC50 of inhibition of enzyme activity (fluorogenic substrate) [1]	IC50 of inhibition of enzyme activity (fluorogenic substrate) [2]	IC50 of inhibition of enzyme activity (fluorogenic substrate) (purified papain)	IC50 of inhibition of enzyme activity (fluorogenic substrate) [3]
sialostatin L (natural protein) TGVFGGYSERANHQANPEFLNLAHYATSTWSAQQPGKTHFDTVAEVVKVETQVVAGTNYRLTLKVAESTCELTSTYNKDTCLPKADAAHRTCTTVVFENLQGDKSVSPFECEAA	0.2 nM	160 nM	0.5 nM	1.6 nM
sialostatin L2 (natural protein) MELALRGGYRERSNQDDPEYLELAHYATSTWSAQQPGKTHFDTVVEVLKVETQTVAGTNYRLTLKVAESTCELTSTYNKDTCQANANAAQRTCTTVIYRNLQGEKSISSFECAAA	114 nM	4720 nM	0.4 nM	1.1 nM
